The text below walks through data of article PMC10418624, “Expression and Characterization of Two α-L-Arabinofuranosidases from Talaromyces amestolkiae: Role of These Enzymes in Biomass Valorization” (International Journal of Molecular Sciences, 2023).

Data set [1] deals with T1, O=[N+]([O-])c1ccc(O[C@@H]2O[C@@H](CO)[C@H](O)[C@H]2O)cc1.
T1 construct: secreted from Pichia pastoris GS115 (pPIC9), N-glycosylated, about 37 kDa on SDS-PAGE; forward primer encodes LPTDETA after the EcoRI site, reverse primer encodes C-terminal PGLLTHK
Description: purified protein. Type of data set: biochemical, Talaromyces amestolkiae. The conditions noted are these: standard reaction: 50 mM sodium acetate pH 5, 50 °C, 0.1% BSA, substrate 0.0625-16 mM.

Data set [2] deals with T2, O=[N+]([O-])c1ccc(O[C@@H]2O[C@@H](CO)[C@H](O)[C@H]2O)cc1.
T2 construct: mature form without 18-residue signal peptide (54 bp), gene 1223 bp with one intron, 368 residues, 39 kDa, N-terminal CBM1, Ser/Thr-rich linker and GH62 domain; secreted from Pichia pastoris GS115 (pPIC9), N-glycosylated, about 50 kDa on SDS-PAGE; forward primer encodes QASLYGQ after the EcoRI site, reverse primer encodes C-terminal LLTLSK
Description: purified protein. Type of data set: biochemical, Talaromyces amestolkiae. Particulars: standard reaction: 50 mM sodium acetate pH 5, 50 °C, 0.1% BSA, substrate 0.0625-16 mM.

Chain of ARA-1 (Talaromyces amestolkiae) (chain, as listed by the source): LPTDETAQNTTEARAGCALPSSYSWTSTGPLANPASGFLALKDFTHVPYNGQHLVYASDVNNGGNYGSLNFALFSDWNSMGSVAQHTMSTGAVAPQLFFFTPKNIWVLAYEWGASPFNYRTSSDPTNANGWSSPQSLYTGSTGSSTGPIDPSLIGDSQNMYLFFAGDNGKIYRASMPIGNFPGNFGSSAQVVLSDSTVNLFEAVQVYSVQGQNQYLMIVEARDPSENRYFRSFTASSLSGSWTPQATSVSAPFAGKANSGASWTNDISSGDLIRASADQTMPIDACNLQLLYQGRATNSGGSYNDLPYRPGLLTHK
Chain of ARA-2 (Talaromyces amestolkiae) (chain, as listed by the source): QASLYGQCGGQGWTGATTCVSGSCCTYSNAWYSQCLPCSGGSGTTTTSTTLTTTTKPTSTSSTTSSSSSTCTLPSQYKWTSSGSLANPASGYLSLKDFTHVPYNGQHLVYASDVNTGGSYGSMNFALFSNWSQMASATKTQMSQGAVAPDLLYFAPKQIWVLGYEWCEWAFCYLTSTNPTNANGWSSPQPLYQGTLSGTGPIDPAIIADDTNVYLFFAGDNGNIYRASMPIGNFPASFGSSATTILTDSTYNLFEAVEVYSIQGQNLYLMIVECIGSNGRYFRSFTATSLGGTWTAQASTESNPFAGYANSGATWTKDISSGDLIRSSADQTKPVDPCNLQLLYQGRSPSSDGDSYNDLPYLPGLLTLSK

As usually defined, the Km is the concentration of substrate that gives half-maximal velocity. For orientation: kcat means the maximal rate divided by the concentration of active sites. By kcat/Km is commonly meant the second-order rate constant that governs catalysis at low substrate concentration. For ARA-1 (Talaromyces amestolkiae), in data set [1], the Km amounted to 8.97 ± 0.06 mM, the kcat stood at 0.05 ± 0.001 s⁻¹ and the kcat/Km amounted to 5 ± 0.4 M⁻¹ s⁻¹.

With ARA-2 (Talaromyces amestolkiae), in data set [2], the Km is given as 1.48 ± 0.08 mM, the kcat amounted to 0.41 ± 0.01 s⁻¹ and the kcat/Km is 280 ± 10 M⁻¹ s⁻¹.
